Target: T1, p110αEE^E545K/p85α complex (E545K oncogenic mutant PI3Kα) (human, UniProt P42336 1-1068; P27986 1-724, E545K)
T1 construct: p110α catalytic subunit of Class 1A PI3K, human, full length, somatic cancer mutation E545K in the helical domain; p85α regulatory subunit of Class 1A PI3K, human, full length; 1:1 heterodimer; also called E545K mutant; p110α^E545K/p85α; not shown: EE tag (glu-tag, 6 amino acids), C-terminal, kept; copies: 1 + 1
Experiment: pull-down; GST fusion proteins (1 μg) on glutathione agarose, PI3Kα complexes (100–3200 ng) in solution; TBS with 10% (v/v) FBS, 1 h at 4°C; washes in TBS with 0.1% Tween 20; bound PI3Kα detected by immunoblot for p85α
Conditions: both partners purified

T1 sequence (P42336 whole entry E545K, chain 1 of 2, the tested form may be a part): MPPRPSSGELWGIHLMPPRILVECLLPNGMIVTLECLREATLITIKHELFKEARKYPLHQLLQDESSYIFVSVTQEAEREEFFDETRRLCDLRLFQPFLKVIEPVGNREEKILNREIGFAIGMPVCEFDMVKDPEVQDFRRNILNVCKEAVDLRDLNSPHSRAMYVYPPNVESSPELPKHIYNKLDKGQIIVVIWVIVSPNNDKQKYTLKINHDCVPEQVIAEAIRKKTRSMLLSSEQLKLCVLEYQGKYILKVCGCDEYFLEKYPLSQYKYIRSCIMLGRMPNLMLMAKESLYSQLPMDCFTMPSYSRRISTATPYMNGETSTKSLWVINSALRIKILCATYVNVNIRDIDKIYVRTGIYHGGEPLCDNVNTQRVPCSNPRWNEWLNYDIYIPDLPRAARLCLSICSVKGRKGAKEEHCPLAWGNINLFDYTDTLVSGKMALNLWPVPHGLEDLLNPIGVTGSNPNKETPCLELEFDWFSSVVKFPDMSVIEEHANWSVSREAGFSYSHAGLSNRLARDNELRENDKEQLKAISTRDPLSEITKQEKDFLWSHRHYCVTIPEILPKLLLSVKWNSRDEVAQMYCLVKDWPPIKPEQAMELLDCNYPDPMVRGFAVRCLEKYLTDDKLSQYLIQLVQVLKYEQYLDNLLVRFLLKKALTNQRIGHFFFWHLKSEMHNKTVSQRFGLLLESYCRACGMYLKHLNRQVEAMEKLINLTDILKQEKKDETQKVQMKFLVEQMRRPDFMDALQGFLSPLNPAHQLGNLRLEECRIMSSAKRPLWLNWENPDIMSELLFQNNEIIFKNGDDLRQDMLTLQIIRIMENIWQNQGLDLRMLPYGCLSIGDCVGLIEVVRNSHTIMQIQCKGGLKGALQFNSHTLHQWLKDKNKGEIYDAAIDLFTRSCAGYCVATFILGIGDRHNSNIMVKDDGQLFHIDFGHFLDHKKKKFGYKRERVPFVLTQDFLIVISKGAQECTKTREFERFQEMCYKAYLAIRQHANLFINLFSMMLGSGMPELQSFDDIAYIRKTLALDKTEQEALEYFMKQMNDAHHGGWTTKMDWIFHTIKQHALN
T1 sequence (P27986 whole entry, chain 2 of 2, the tested form may be a part): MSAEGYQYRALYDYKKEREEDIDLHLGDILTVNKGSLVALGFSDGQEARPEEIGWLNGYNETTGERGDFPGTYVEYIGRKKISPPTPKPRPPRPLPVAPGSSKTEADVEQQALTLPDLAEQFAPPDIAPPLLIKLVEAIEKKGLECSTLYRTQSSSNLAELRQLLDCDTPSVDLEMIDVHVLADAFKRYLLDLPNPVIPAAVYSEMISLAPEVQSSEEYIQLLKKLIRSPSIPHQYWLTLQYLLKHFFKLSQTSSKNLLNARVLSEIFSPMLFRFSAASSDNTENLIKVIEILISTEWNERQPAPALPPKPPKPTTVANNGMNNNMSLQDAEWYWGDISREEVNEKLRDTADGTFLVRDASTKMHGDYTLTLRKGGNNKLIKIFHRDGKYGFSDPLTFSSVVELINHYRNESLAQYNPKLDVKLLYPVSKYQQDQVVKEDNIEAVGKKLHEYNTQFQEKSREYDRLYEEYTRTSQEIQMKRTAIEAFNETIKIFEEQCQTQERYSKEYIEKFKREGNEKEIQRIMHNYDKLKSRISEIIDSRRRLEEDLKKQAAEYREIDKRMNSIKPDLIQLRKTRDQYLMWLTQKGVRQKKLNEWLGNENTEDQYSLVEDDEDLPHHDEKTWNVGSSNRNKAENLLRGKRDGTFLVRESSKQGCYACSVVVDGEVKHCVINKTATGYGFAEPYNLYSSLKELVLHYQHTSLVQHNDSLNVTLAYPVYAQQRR

B1: GST-V12 Cdc42 (constitutively active Cdc42Hs) (natural protein)
chain: not shown
notes: Cdc42Hs, human, constitutively active (V12) form; Plasmid courtesy of Professor Anne Ridley; also called GST-Cdc42; source: E. coli BL21 (DE3), purified (glutathione agarose)
B1: binds.
